B1: HDV Ribozyme (parent)
chain: GGCCGGCAUGGUCCCAGCCUCCUCGCUGGCGCCGGCUGGGCAACAUUCCGAGGGGACCGUCCCCUCGGUAAUGGCGAAUGGGACCCA

Variants of B1 are the subject of the data set. Nature of the data set: self-cleavage, relative activity (ratio to wild type); higher = more cleavage; co-transcriptional.
Turning to U12A G55C, the self-cleavage is 0.201.

Consider U12G G38A, for which the self-cleavage is 0.0978.

As to U12C G17C, the self-cleavage was found to be 0.145.

In the case of U12G C22A, the self-cleavage stood at 0.277.

For U12G C22U, the self-cleavage is 0.256.

U12G C22G: the self-cleavage was determined as 0.

As to U12G A51C, the self-cleavage turned out to be 0.415.

For U12G A51G, the self-cleavage was 0.867.

With C13A G40C, the self-cleavage was 0.

For C13A G40U, the self-cleavage was determined as 0.0326.

With C13A G40A, the self-cleavage turned out to be 0.233.

Regarding U12G G29U, the self-cleavage was 0.0489.

With U12G G29C, the self-cleavage turned out to be 0.175.

In the case of U12G G29A, the self-cleavage is 0.0978.

For U12G C66U, the self-cleavage worked out at 0.853.

Regarding U12G C66G, the self-cleavage came out at 0.862.

For the variant U12C U69G, the self-cleavage was determined as 0.485.

With U12C U69C, the self-cleavage turned out to be 0.391.

In the case of C13A C66G, the self-cleavage was determined as 0.378.

For C13A C66U, the self-cleavage is 0.125.

With C13A C66A, the self-cleavage is 0.125.

With U12G C18U, the self-cleavage is 0.361.

With U12G C18G, the self-cleavage was found to be 0.

In the case of U12G C18A, the self-cleavage was determined as 0.151.

U12G G17A: the self-cleavage turned out to be 0.277.

With U12G C84U, the self-cleavage was 0.692.

In the case of U12G C84A, the self-cleavage turned out to be 0.665.

For the variant U12C C44G, the self-cleavage turned out to be 0.

With U12C C44A, the self-cleavage came out at 0.252.

Consider C13A C63U, for which the self-cleavage came to 0.0627.

As for C13A C84U, the self-cleavage came to 0.227.

As to C13A C84A, the self-cleavage was 0.831.

Regarding U12G G35C, the self-cleavage was 0.151.

As to U12G G35U, the self-cleavage amounted to 0.104.

With U12C G67U, the self-cleavage turned out to be 0.38.

On to U12C A56G, for which the self-cleavage came to 0.623.

As to U12G C49G, the self-cleavage amounted to 0.787.

For U12G C49U, the self-cleavage is 0.776.

Take U12C C64A: the self-cleavage amounted to 0.344.

For U12C C64U, the self-cleavage stood at 0.665.

In the case of U12C A16G, the self-cleavage worked out at 0.

Take C13A C32G: the self-cleavage stood at 0.0346.

On to U12A U60A, for which the self-cleavage turned out to be 0.453.

For the variant U12A U60C, the self-cleavage worked out at 0.391.

On to U12A U37A, for which the self-cleavage is 0.

For U12C U72G, the self-cleavage was 0.128.

On to U12G G76C, for which the self-cleavage worked out at 1.2.

As to U12G G76A, the self-cleavage was 0.917.

In the case of U12G G76U, the self-cleavage turned out to be 1.17.

For C13A C24G, the self-cleavage worked out at 0.117.

C13A C24A: the self-cleavage was determined as 0.

As for U12G U79C, the self-cleavage was 0.243.

Take U12G G39C: the self-cleavage is 0.208.

Turning to U12G G39A, the self-cleavage came out at 0.403.

Turning to U12C A78U, the self-cleavage came out at 0.

Take U12C A78C: the self-cleavage worked out at 0.162.

On to U12G U47C, for which the self-cleavage was 0.437.

As for U12G U47G, the self-cleavage was found to be 1.21.

On to U12G G67U, for which the self-cleavage came to 0.731.

Take U12G G82A: the self-cleavage was 0.499.

Take U12G G82C: the self-cleavage was 0.633.

Regarding U12G G82U, the self-cleavage was found to be 0.519.

For the variant U12C A45U, the self-cleavage was 0.196.

For the variant U12C A45G, the self-cleavage is 0.277.

Take U12G G34U: the self-cleavage is 0.266.

As to U12G G50C, the self-cleavage came to 0.727.

For the variant U12G G50U, the self-cleavage is 0.87.

C13A C75A: the self-cleavage came to 0.0573.

Regarding C13A C75G, the self-cleavage was determined as 0.145.

For C13A C57G, the self-cleavage was found to be 0.19.

On to U12C U23C, for which the self-cleavage is 0.755.

As for U12C U23G, the self-cleavage stood at 0.208.

As for U12A G76A, the self-cleavage was determined as 0.499.

In the case of U12A G76U, the self-cleavage came out at 0.906.

With U12A G76C, the self-cleavage was found to be 0.443.

In the case of C13A G29A, the self-cleavage was determined as 0.0268.

Take C13A C36A: the self-cleavage was 0.0421.

Take C13A C36G: the self-cleavage came to 0.192.

Take C13A C36U: the self-cleavage was found to be 0.0432.

With U12A U23C, the self-cleavage was 0.237.

Consider C13A C21U, for which the self-cleavage came out at 0.0583.

Regarding C13A C21A, the self-cleavage is 0.158.

As for U12G A87C, the self-cleavage was 0.749.

As to U12G A87G, the self-cleavage came to 0.723.

Take U12C G81A: the self-cleavage is 0.095.

With U12C G81U, the self-cleavage came to 0.

As to U12G U23C, the self-cleavage is 0.997.

Turning to U12G G53U, the self-cleavage came to 1.01.

Take U12G G53A: the self-cleavage was 0.88.

With U12G A56U, the self-cleavage came to 1.22.

For the variant U12G A56G, the self-cleavage was 0.767.

For U12G G74C, the self-cleavage was 0.151.

As to U12G A83C, the self-cleavage stood at 1.17.

For the variant U12G G52U, the self-cleavage came out at 0.617.

Regarding U12A U72G, the self-cleavage is 0.185.

Take C13A C14A: the self-cleavage was 0.128.

As for C13A A51G, the self-cleavage was 0.148.

On to C13A A51C, for which the self-cleavage is 0.0898.

Consider U12G G31C, for which the self-cleavage is 0.138.

As for U12G G31U, the self-cleavage was 0.277.

For the variant U12G C21A, the self-cleavage came to 0.

Consider U12G C21G, for which the self-cleavage was determined as 0.0665.

As for C13A A78C, the self-cleavage is 0.0297.

Consider C13A A78G, for which the self-cleavage turned out to be 0.0773.

As to U12G C26A, the self-cleavage was found to be 0.748.

Regarding U12C C84U, the self-cleavage came out at 0.208.

For U12C C84A, the self-cleavage is 0.222.

On to U12G G59C, for which the self-cleavage turned out to be 0.95.

U12G G59A: the self-cleavage is 0.929.

Take U12G U60C: the self-cleavage amounted to 0.895.

For the variant U12G U60G, the self-cleavage is 0.831.

Take U12G G80U: the self-cleavage stood at 0.534.

As for U12G C75U, the self-cleavage amounted to 0.

Turning to U12C G31C, the self-cleavage stood at 0.123.

Regarding U12C G31U, the self-cleavage was 0.0386.

With U12C G31A, the self-cleavage turned out to be 0.237.

Turning to C13A C64G, the self-cleavage came to 0.19.

Turning to C13A C64U, the self-cleavage was found to be 0.242.

As to U12G G55C, the self-cleavage was found to be 0.95.

In the case of C13A G28C, the self-cleavage turned out to be 0.111.

U12G C48A: the self-cleavage was determined as 0.831.

As for U12G C48U, the self-cleavage is 1.2.

With U12C G29U, the self-cleavage turned out to be 0.0346.

With U12C G29A, the self-cleavage worked out at 0.0415.

Consider U12C G29C, for which the self-cleavage amounted to 0.0462.

As for C13A A70C, the self-cleavage was found to be 0.285.

Take C13A A70U: the self-cleavage worked out at 0.0405.

As for U12G C36U, the self-cleavage was found to be 0.415.

For U12G C36A, the self-cleavage turned out to be 0.156.

On to U12C A77C, for which the self-cleavage was 0.237.

For C13A A43C, the self-cleavage amounted to 0.135.

C13A C48G: the self-cleavage worked out at 0.138.

For the variant C13A C48A, the self-cleavage was found to be 0.

As to U12G C64A, the self-cleavage worked out at 0.594.

Consider U12A U46G, for which the self-cleavage came to 0.104.

As to U12G C13G, the self-cleavage stood at 0.639.

U12G C13U: the self-cleavage is 0.931.

Turning to U12C G34U, the self-cleavage was found to be 0.0396.

U12C G34A: the self-cleavage stood at 0.0692.

For the variant U12A G59U, the self-cleavage amounted to 0.214.

With U12G C57A, the self-cleavage was 0.985.

For U12G C57G, the self-cleavage was 0.931.

Regarding U12G A77G, the self-cleavage stood at 0.443.

On to U12G A77U, for which the self-cleavage was determined as 0.443.

For U12C C24A, the self-cleavage turned out to be 0.232.

Take U12C C24U: the self-cleavage worked out at 0.0791.

Consider U12C C24G, for which the self-cleavage came to 0.119.

Regarding C13A A56U, the self-cleavage is 0.312.

Turning to U12C C86G, the self-cleavage is 0.104.

As for U12C C21U, the self-cleavage worked out at 0.

U12C C21A: the self-cleavage turned out to be 0.0573.

Consider U12C C21G, for which the self-cleavage worked out at 0.0791.

As for U12A U65A, the self-cleavage came to 0.431.

For the variant U12C C85U, the self-cleavage was found to be 0.

As for U12C C85A, the self-cleavage was 0.185.

For U12A G82U, the self-cleavage amounted to 0.161.

Consider U12A G82C, for which the self-cleavage came to 0.302.

Regarding U12A U69A, the self-cleavage was 0.346.

U12C G53U: the self-cleavage turned out to be 0.427.

For the variant U12G C86G, the self-cleavage turned out to be 0.59.

Regarding U12G C86A, the self-cleavage stood at 0.906.

As to C13A A83G, the self-cleavage worked out at 0.086.

C13A A83C: the self-cleavage was found to be 0.166.

Regarding U12G G73U, the self-cleavage turned out to be 0.166.

In the case of U12G G73C, the self-cleavage came out at 0.489.

As to U12C A42G, the self-cleavage was determined as 0.0831.

Turning to U12C U65C, the self-cleavage stood at 0.492.
